From patent publication US20170260274A1 come the findings set out here.

In test [1] the target is epidermal growth factor receptor (EGFR) (human), P00533. Put plainly: flow cytometry, equilibrium binding on EGFR-expressing A431 cells (apparent KD). (In general: Flow cytometry measures light scatter and fluorescence of single cells or particles in a stream.)
Test [2] has the same target. Put plainly: cell-based or functional assay.

B1: Ranpirnase-DEN-scFv (protein)
chain: QDWLTFQKKHITNTRDVDCDNIMSTNLFHCKDKNTFIYSRPEPVKAICKGIIASKNVLTTSEFYLSDCNVTSRPCKYKLKKSTNKFCVTCENQAPVHFVGVGSCMVDRGWGNGCGLFGKGGIVEVQLVESGGGLVQPGGSLRLSCAASGFSLTNYGVHWVRQAPGKGLEWLGVIWSGGNTDYNTPFTSRFTISRDNSKNTLYLQMNSLRAEDTAVYYCARALTYYDYEFAYWGQGTTVTVSSGGGGSGGGGSGGGGSDIQLTQSPSFLSASVGDRVTITCRASQSIGTNIHWYQQKPGKAPKLLIKYASESISGVPSRFSGSGSGTEFTLTISSLQPEDFATYYCQQNNNWPTTFGAGTKLEIKR
modifications: not checked
For B1, the Kd in test [1] was found to be 11.2 nM. Also, in test [2], the IC50 (nM), cell viability, A431 came out at 38 nM; the IC50 (nM), cell viability, HNO97 was found to be 411 nM; the IC50 (nM), cell viability, HNO211 was 18 nM; the IC50 (nM), cell viability, HNO410 came to 308 nM. In addition, the fold increase in potency compared to Ranpirnase-GS-scFv, HNO211 cells in test [2] turned out to be 79 fold.
